Entries after “also recorded” stand apart in the source; their conditions may differ. Each block holds one molecule with its values, some of them ahead of it.
How the values were obtained:
[1] = assay type: physicochemical
Method: 25× volumes of lysis buffer 25 mM HEPES, 20 mM imidazole, 400 mM sodium chloride, 0.5 mM EDTA, 5% glycerol, 0.01% Tween 20, pH 7.5 were added to E. coli pellets harvested from 25 mL TB culture, and sonicated 5× on ice at 40% output using a probe sonicator. Once lysed, whole cell extracts were clarified at 10K*g and 100 uL of supernatant were aliquoted and subjected to incubations at 50° C., 60° C., 70° C., and 80° C. for 15 minutes, followed by a ten-minute incubation on ice. Thermally precipitated proteins were removed at 10K*g for five minutes, and soluble extract fractions were combined directly with Laemmli sample buffer, denatured, and run on 4-20% SDS-PAGE to evaluate yield and stability.

[2] = target: T1, Human VEGF 165 (Homo sapiens, UniProt P15692); test: Accelerated 37° C. stability study, VEGF binding by BLI over time; conditions: DARPin MVPs, aging 28 and 32 days at 37° C., compared with Conjugate 2
T1 construct: Avi; purchased R&D Systems AVI-293-050
T1 sequence (P15692 27-191 isoform P15692-4): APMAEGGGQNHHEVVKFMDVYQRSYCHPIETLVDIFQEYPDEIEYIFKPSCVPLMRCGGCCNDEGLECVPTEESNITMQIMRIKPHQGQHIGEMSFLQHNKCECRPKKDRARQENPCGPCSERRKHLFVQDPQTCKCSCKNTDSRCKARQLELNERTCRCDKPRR
Method: MVP stability was assessed by setting up a long term accelerated […] stability by maintaining the MVPs at 37° C. at 5-10X the therapeutic concentration in pH 7.3 vitreous mimetic buffer (Table 19) or pH 7.4 PBS 0.01% tween 20. MVP stability was assessed using SEC MALS or SEC, DLS, and/or BLI analysis of samples removed after various times.
Long-term 37° C. stability studies were set up to assess composition impact on MVP stability. MVPs were synthesized under sterile conditions and diluted to around 0.4 mg/mL in a sterile filtered human vitreous mimetic buffer. This concentration is 5X higher than intravitreal therapeutic concentration of our predicted clinical dose. […] At discrete timepoints, one aliquot from each sample was removed from the plate under sterile conditions and analyzed. […] Then, the protein concentration is measured to adjust for any differences in volume that may have occurred. The binding affinity to is measured using BLI. […] To monitor changes in radius over time, the samples are spun for 5 minutes at 5000 g to remove any large aggregates or dust particles and the Rh is measured using DLS without any sample dilution.
The change in binding affinity over time using biolayer interferometry (BLI) was also determined. […] Analytes were prepared at the top concentration determined in pilot reactions in BLI buffer and serially diluted 1:3 two to five more times using BLI buffer. […]

[3] = SEC analysis of MVP stability samples aged at 37° C.; assay type: physicochemical; conditions: anti-VEGF DARPin MVPs stored up to 71 days at 37° C., compared with Conjugate 2
Method: Stability study samples were analyzed using HPLC size exclusion chromatography (SEC). This method was also used to analyze MVP formation and percent unreacted protein after purification. To assess stability via SEC, MVP was filtered to remove particles and analyzed using a Shodex 1 MDa Ohpak LB-804, Shodex KW-404 or 405, or Phenomenex PolySep6000 column with DPBS or appropriate solvent as the mobile phase to get baseline trace at 280 nm, 230 nm, etc. After various time points samples were removed and analyzed using the same SEC method. Increases in retention time and peak width relative to the baseline sample indicated degradation. In addition, decreases in MVP peak area and/or increases in monomer and dimer protein species peak area also indicate MVP degradation. Percent conjugate loss was quantified by comparing peak area differences with time. In the future, the SEC stability analysis will be coupled with MALS to quantify molecular weight and valency changes of the conjugate with age at different temperatures. […]
Stability study samples were also analyzed by coupling SEC with MALS analysis for determination of MVP radius of gyration (Rg,z) and molecular weight at different time points after aging at 37° C. […] System-specific calibration numbers, normalization coefficients, delay volumes, and band broadening terms were determined for the system prior to analysis. […]

[4] = target: T2, Human VEGF 165 (human, UniProt P15692-4 27-191); test: BLI, VEGF 165 on probe, t = 0 (repeats Table 15); limit of detection
T2 construct: Loaded on the BLI probe as the ligand; also called BLI ligand Human VEGF 165 (Avi tag, R&D Systems AVI-293-050); not shown: Avi tag

[5] = target: T2, Human VEGF 165; test: BLI; KD after 4 days at 37 °C against KD at t = 0
[6] = target: T2, Human VEGF 165; test: BLI, VEGF 165 on probe; sample aged 4 days at 37 °C
[7] = target: T2, Human VEGF 165; test: BLI, VEGF 165 on probe; sample aged 11 days at 37 °C
[8] = target: T2, Human VEGF 165; test: BLI, VEGF 165 on probe, conjugate as analyte, t = 0; value is the limit of detection
[9] = target: T2, Human VEGF 165; test: BLI; KD after 11 days at 37 °C against KD at t = 0

B1: aTNFaMu_3MUT: anti-TNFα single domain antibody (mouse), aTNFaMu with three point mutations, SEQ ID NO: 72 (protein)
VHH: QVQLQESGGGLVQAGGSLRLSCAASGGTFSSIIMAWFRQAPGKEREFVGAVSWSGGTTVYADSVKGRFTISRDSARKSVYLQMNSLKPEDTAVYYCAARPYQKYNWASASYNVWGQGTQVTVSS
modifications: aTNF-a mu 3MUT
thermal stability of the protein in E. coli cell extracts [1]: about 70 °C

B2: Conjugate 1: HA conjugate of anti-VEGF DARPin peptide SEQ ID NO: 92, made from Method 5 intermediate 5-4 (MP2H) (conjugate)
chain: GSDLDKKLLEAARAGQDDEVRILMANGADVNARDSTGWTPLHLAAPWGHPEIVEVLLKNGADVNAADFQGWTPLHLAAAVGHLEIVEVLLKYGADVNAQDKFGKTAFDISIDNGNEDLAEILQKAAGGGSGGGS
modifications: hyaluronic acid conjugate; anti-VEGF DARPIN
association constant (Kon) initially and with aging [2]: lower Kon and slower association initially and with aging
SEC retention time / radius change with aging [3]: much larger increase in retention time and contraction of radius; also recorded: larger losses in radius with aging

Kd [4]: < 1 pM
Change in KD to t = 0 [5]: 654 fold
Kd [6]: 0.654 nM
Kd [7]: 0.648 nM
Kd [8]: < 1 pM
Change in KD to t = 0 [9]: 648 fold
B3: Conjugate 16 (anti-VEGF VHH SEQ ID NO: 91 with aH linker SEQ ID NO: 21 on hyaluronic acid, intermediate 2-6) (VHH)
VHH: DVQLVESGGGLVQPGGSLRLSCAASGRTFSSYSMGWFRQAPGKEREFVVAISKGGYKYDAVSLEGRFTISRDNAKNTVYLQINSLRPEDTAVYYCASSRAYGSSRLRLADTYEYWGQGTLVTVSS
modifications: C-terminal Cys of the peptide linker bound by its thiol to the maleimide of the organic linker MP2H on hyaluronic acid (830 kDa)
notes: Multivalent peptide-hyaluronic acid conjugate (MVP); peptide valency 101; Method 2 intermediate; also called BI VHH anti-VEGF MVP

— patent US20230405133A1, “PURIFIED MULTIVALENT PROTEIN-HYALURONIC ACID POLYMER CONJUGATES” (Valitor, Inc., priority 2022, published 2023)
